This is an account of results in paper PMC8748927.

The target of this assay is Mycobacterium tuberculosis cell wall sulfoglycolipid peptide on CD1b (human). As to the kind of experiment: IFN-γ ELISPOT. CD4 clone of primary T cells transduced with the A05 TCR, with K562-CD1b. SGL was titrated from 1 µg/ml to 10^-7 µg/ml. This EC50 is stated to be 100-fold lower than that of an A05-CD8 T cell clone.; full-length, on cells. The note with it: chains alpha TRAV13-2 TRAJ52 CDR3:beta TRBV20-1 TRBJ1-2 CDR3.

B1: A05 TCR (peptide)
chain 1: CAEVLGGTSYGKLTF
chain 2: CSASGRRGYGYTF
B1 registered an EC50 of peptide of 0.6 ng/mL.
